In patent US20160333065A1 (ACADEMISCH ZIEKENHUIS LEIDEN H O D N LUMC, published 2016):

Key:
[1] = target: T1, HLA-B8 (B*0801) (human); experiment: cellular competition binding assay on acid-stripped B-LCL Vavy, flow cytometry; competitor Fl-labeled reference peptide FLRGRAC(Fl)GL
T1 construct: MHC class I molecule on mild-acid-stripped EBV-transformed B cells (Vavy)

[2] = target: T2, HLA-B35 (B*3501) (human); experiment: cellular competition binding assay on acid-stripped B-LCL BVR, flow cytometry; competitor Fl-labeled reference peptide NPDIVC(Fl)YQY
T2 construct: MHC class I molecule on mild-acid-stripped EBV-transformed B cells (BVR)

[3] = target: T3, HLA-A3 (A*0301) (human); experiment: cellular competition binding assay on acid-stripped B-LCL EKR, flow cytometry; competitor Fl-labeled reference peptide KVFPC(Fl)ALINK
T3 construct: MHC class I molecule on mild-acid-stripped EBV-transformed B cells (EKR)

[4] = target: T4, HLA-B7 (B*0702) (human); experiment: cell competition vs APAPAPC(FI)WPL, stripped JY B-LCL, FACS
T4 construct: Acid-stripped B-LCL

[5] = target: T5, HLA-B8 (B*0801) (human); experiment: cell competition vs FLRGRAC(FI)GL, stripped Vavy B-LCL, FACS
T5 construct: Acid-stripped B-LCL

[6] = target: T6, HLA-B60 (B*4001) (human); experiment: cellular competition binding assay on acid-stripped B-LCL DKB, flow cytometry; competitor Fl-labeled reference peptide KESTC(Fl)HLVL
T6 construct: MHC class I molecule on mild-acid-stripped EBV-transformed B cells (DKB)

[7] = target: T7, HLA-B62 (B*1501) (human); experiment: cellular competition binding assay on acid-stripped B-LCL BSM, flow cytometry; competitor Fl-labeled reference peptide YLGEFSC(Fl)TY
T7 construct: MHC class I molecule on mild-acid-stripped EBV-transformed B cells (BSM)

[8] = target: T8, HLA-B8 (B*0801) (human); experiment: competition vs FLRGRAC(FI)GL on stripped B-LCL, FACS
T8 construct: HLA class I on acid-stripped EBV-transformed B cells (B-LCL)

[9] = target: T9, HLA-B7 (B*0702) (human); experiment: competition vs APAPAPC(FI)WPL on stripped B-LCL, FACS
T9 construct: HLA class I on acid-stripped EBV-transformed B cells (B-LCL)

YLHARLREL [PRAME 462-470 YLHARLREL]
IC50 [1]: < 1000 nM

EPILCPCFM [PRAME 499-507 EPILCPCFM]
IC50 [2]: 320 nM

RLAYLHARLR [PRAME 459-468 RLAYLHARLR]
IC50 [3]: 1000 nM

RPRRWKLQVL [PRAME peptide RPRRWKLQVL]
IC50 [4]: < 1000 nM | IC50 [5]: < 1000 nM

YEDIHGTLHL [PRAME 448-457 YEDIHGTLHL]
IC50 [6]: < 1000 nM

VLYPVPLESY [PRAME 439-448 VLYPVPLESY]
IC50 [7]: 1660 nM

RPRRWKLQVL [PRAME 113-122 RPRRWKLQVL]
IC50 [8]: < 1000 nM | IC50 [9]: < 1000 nM
